Here are results for 13 molecules from patent publication US20190359693A1.

What all share (experiment): cell-based or functional assay
Assay [1] addresses hemagglutinin (HA) of influenza virus H7N7 A/PR8 H7N7-NY (influenza A virus).
The target in assay [2] is hemagglutinin (HA) of influenza virus H1N1 A/New Caledonia/20/99 (influenza A virus).
Assay [3] has as its target hemagglutinin (HA) of influenza virus B/Florida/04/06 (Yamagata) (influenza B virus).
The target of assay [4] is hemagglutinin (HA) of influenza virus H1N1 A/Puerto Rico/8/34-MA (influenza A virus).
Assay [5] deals with hemagglutinin (HA) of influenza virus H7N3 A/NIBRG/60 (A/mallard/Netherlands/12/00) (influenza A virus).
Assay [6] concerns the target hemagglutinin (HA) of influenza virus H3N2 A/Wisconsin/67/05 (influenza A virus).
The target in assay [7] is hemagglutinin (HA) of influenza virus H5N1 A/Vietnam/1194/04 (influenza A virus).
Assay [8] has as its target hemagglutinin (HA) of influenza virus H3N2 A/Brisbane/10/07 (influenza A virus).
Assay [9] concerns the target hemagglutinin (HA) of influenza virus H1N1 A/California/07/09 (influenza A virus).
Assay [10] deals with hemagglutinin (HA) of influenza A/Brisbane/10/07 (H3N2) (influenza A virus A/Brisbane/10/07 (H3N2)).
In assay [11] the target is hemagglutinin (HA) of influenza A/Hong Kong/1/68 (H3N2) (influenza A virus A/Hong Kong/1/68 (H3N2)) (UniProt Q91MA7).
The target of assay [12] is hemagglutinin (HA) of influenza A/Vietnam/1194/04 (H5N1) (influenza A virus A/Vietnam/1194/04 (H5N1)).
Assay [13] addresses hemagglutinin (HA) of influenza A/New Caledonia/20/99 (H1N1) (influenza A virus A/New Caledonia/20/99 (H1N1)).
Assay [14] concerns the target hemagglutinin (HA) of influenza B/Harbin/7/94 (Yamagata) (influenza B virus).
Assay [15] concerns the target hemagglutinin (HA) of influenza B/Malaysia/2506/04 (Victoria) (influenza B virus).
For assay [16], the target named is hemagglutinin (HA) of influenza B/Massachusetts/02/12 (Yamagata) (influenza B virus).
The target in assay [17] is hemagglutinin (HA) of influenza B/Lee/40 (Old) (influenza B virus) (UniProt P03460).
hemagglutinin (HA) of influenza B/Lee/40 (Old) (influenza B virus), sequence (P03460 16-584 limits assumed): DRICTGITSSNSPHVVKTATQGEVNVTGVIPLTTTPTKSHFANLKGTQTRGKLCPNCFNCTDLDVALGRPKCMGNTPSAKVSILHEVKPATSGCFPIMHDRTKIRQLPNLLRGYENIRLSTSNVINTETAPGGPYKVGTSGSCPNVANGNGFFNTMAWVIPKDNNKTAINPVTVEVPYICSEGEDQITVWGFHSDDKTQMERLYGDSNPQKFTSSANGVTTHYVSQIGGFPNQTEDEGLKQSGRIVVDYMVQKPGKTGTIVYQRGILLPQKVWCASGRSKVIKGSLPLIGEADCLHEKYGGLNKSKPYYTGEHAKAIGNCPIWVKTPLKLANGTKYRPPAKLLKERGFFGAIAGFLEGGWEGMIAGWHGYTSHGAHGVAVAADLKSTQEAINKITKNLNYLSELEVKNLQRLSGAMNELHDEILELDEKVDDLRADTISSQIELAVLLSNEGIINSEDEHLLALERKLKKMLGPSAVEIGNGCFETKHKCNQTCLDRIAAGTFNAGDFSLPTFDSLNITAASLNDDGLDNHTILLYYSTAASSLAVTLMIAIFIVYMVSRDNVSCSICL
Assay [18] deals with hemagglutinin (HA) of influenza B/Florida/04/06 (Yamagata) (influenza B virus).

B1: MD2303 (bispecific antibody)
chain: EVQLVESGGGLVQPGGSLRLSCAVSISIFDIYAMDWYRQAPGKQRDLVATSFRDGSTNYADSVKGRFTISRDNAKNTLYLQMNSLKPEDTAVYLCHVSLYRDPLGVAGGMGVYWGKGALVTVSSGGGGSGGGGSEVQLVESGGGLVQAGGSLKLSCAASGRTYAMGWFRQAPGKEREFVAHINALGTRTYYSDSVKGRFTISRDNAKNTEYLEMNNLKPEDTAVYYCTAQGQWRAAPVAVAAEYEFWGQGTQVTVSSGGGGSGGGGSEVQLVESGGGLVQPGGSLRLSCAATGFTLENKAIGWFRQTPGSEREGVLCISKSGSWTYYTDSMRGRFTISRDNAENTVYLQMDSLKPEDTAVYYCATTTAGGGLCWDGTTFSRLASSWGQGTQVTVSS
In the case of B1, the average neutralization titer is 18.2 nM in [1]; 7.2 nM in [2]; 412 nM in assay [3]; 9.1 nM in assay [4]; 10.2 nM in assay [5]; 15 nM in assay [6]. Further, the figures for the average neutralization titer in assay [7] and in assay [8] were 9.1 nM and 12.8 nM, respectively.

B2: MD1215 (VHH)
chain: EVQLVESGGGLVQAGGSLKLSCAASGRTYAMGWFRQAPGKEREFVAHINALGTRTYYSDSVKGRFTISRDNAKNTEYLEMNNLKPEDTAVYYCTAQGQWRAAPVAVAAEYEFWGQGTQVTVSSAAAGGGGSGGGGSGGGGSGGGGSGGGGGGSGGGGSGGGGSGGGGSGGGGSGGGGSGGGGSEVQLVESGGGLVQAGGSLKLSCAASGRTYAMGWFRQAPGKEREFVAHINALGTRTYYSDSVKGRFTISRDNAKNTEYLEMNNLKPEDTAVYYCTAQGQWRAAPVAVAAEYEFWGQGTQVTVSS
For the molecule B2, the neutralization titer in assay [9] came to 4.1 nM; in [4] it was 39.6 nM; in assay [6], 34.1 nM; in [7] it was 918 nM.

B3: SD3013 (VHH)
VHH: EVQLVESGGGVVQPGGSLRLSCAASISIFDIYAMDWYRQAPGKQRELVATSFRDGSTYYADSVKGRFTISRDNSKNTLYLQMNSLRAEDTAVYLCHVSLYRDPLGVAGGMGVYWGKGALVTVSS
For B3, the VNA IC50 in assay [10] is 318 nM; in assay [11], 126 nM; in assay [12], 20 nM; in assay [13], 6 nM.

B4: SD3079 (VHH)
VHH: EVQLVESGGGVVQPGGSLRLSCAASISIFDIYAMDWYRQAPGKQRELVAVSFRDGSTYYADSVKGRFTISRDNSKNTLYLQMNSLRAEDTAVYYCHVSLYRDPLGVAGGLGVYWGQGTLVTVSS
As for B4, the VNA IC50 was 949 nM in assay [10], 503 nM in [11], 16 nM in assay [12] and 5 nM in assay [13].

B5: SD3119 (VHH)
VHH: QVQLVESGGGVVQPGGSLRLSCAASISIFDIYAMDWYRQAPGKQRELVAVSFRDGSTYYADSVKGRFTISRDNSKNTLYLQMNSLRAEDTAVYYCHVSLYRDPLGVAGGIGVYWGQGTLVTVSS
Consider B5, for which the VNA IC50 in assay [10] came out at 253 nM; in [11], 101 nM; in assay [12], 6 nM; in assay [13] it was 3 nM.

B6: MD1214 (bispecific antibody)
chain: EVQLVESGGGLVQPGGSLRLSCAVSISIFDIYAMDWYRQAPGKQRDLVATSFRDGSTNYADSVKGRFTISRDNAKNTLYLQMNSLKPEDTAVYLCHVSLYRDPLGVAGGMGVYWGKGALVTVSSAAAGGGGSGGGGSGGGGSEVQLVESGGGLVQAGGSLKLSCAASGRTYAMGWFRQAPGKEREFVAHINALGTRTYYSDSVKGRFTISRDNAKNTEYLEMNNLKPEDTAVYYCTAQGQWRAAPVAVAAEYEFWGQGTQVTVSS
For B6, the neutralization titer in assay [9] is 1.4 nM; in [4], 7.5 nM; in [6] it was 12.5 nM; in assay [7] it was 0.9 nM.

B7: MD2406 (VHH)
chain: EVQLVESGGGLVQPGGSLRLSCAVSISIFDIYAMDWYRQAPGKQRDLVATSFRDGSTNYADSVKGRFTISRDNAKNTLYLQMNSLKPEDTAVYLCHVSLYRDPLGVAGGMGVYWGKGALVTVSSGGGGSGGGGSEVQLVESGGGLVQPGGSLRLSCAVSISIFDIYAMDWYRQAPGKQRDLVATSFRDGSTNYADSVKGRFTISRDNAKNTLYLQMNSLKPEDTAVYLCHVSLYRDPLGVAGGMGVYWGKGALVTVSSGGGGSGGGGSEVQLVESGGGLVQPGGSLRLSCAVSISIFDIYAMDWYRQAPGKQRDLVATSFRDGSTNYADSVKGRFTISRDNAKNTLYLQMNSLKPEDTAVYLCHVSLYRDPLGVAGGMGVYWGKGALVTVSSGGGGSGGGGSEVQLVESGGGLVQPGGSLRLSCAVSISIFDIYAMDWYRQAPGKQRDLVATSFRDGSTNYADSVKGRFTISRDNAKNTLYLQMNSLKPEDTAVYLCHVSLYRDPLGVAGGMGVYWGKGALVTVSS
For B7, the average neutralization titer turned out to be 11 nM in assay [1], 4.6 nM in assay [5] and 4.6 nM in assay [6].

B8: MD1213 (VHH)
chain: EVQLVESGGGLVQAGGSLKLSCAASGRTYAMGWFRQAPGKEREFVAHINALGTRTYYSDSVKGRFTISRDNAKNTEYLEMNNLKPEDTAVYYCTAQGQWRAAPVAVAAEYEFWGQGTQVTVSSAAAGGGGSGGGGSGGGGSEVQLVESGGGLVQAGGSLKLSCAASGRTYAMGWFRQAPGKEREFVAHINALGTRTYYSDSVKGRFTISRDNAKNTEYLEMNNLKPEDTAVYYCTAQGQWRAAPVAVAAEYEFWGQGTQVTVSS
Regarding B8, the neutralization titer was 2.4 nM in assay [9], 27.8 nM in assay [4], 18.6 nM in [6] and < 1000 nM in assay [7].

B9: MD1216 (bispecific antibody)
chain: EVQLVESGGGLVQPGGSLRLSCAVSISIFDIYAMDWYRQAPGKQRDLVATSFRDGSTNYADSVKGRFTISRDNAKNTLYLQMNSLKPEDTAVYLCHVSLYRDPLGVAGGMGVYWGKGALVTVSSAAAGGGGSGGGGSGGGGSGGGGSGGGGGGSGGGGSGGGGSGGGGSGGGGSGGGGSGGGGSEVQLVESGGGLVQAGGSLKLSCAASGRTYAMGWFRQAPGKEREFVAHINALGTRTYYSDSVKGRFTISRDNAKNTEYLEMNNLKPEDTAVYYCTAQGQWRAAPVAVAAEYEFWGQGTQVTVSS
Take B9: the neutralization titer in [9] was found to be 1.4 nM; in assay [4], 9.7 nM; in [6], 12.1 nM; in [7], 3.4 nM.

B10: SD3092 (VHH)
VHH: EVQLVESGGGLVQPGGSLRLSCAISGLSLDTYAVGWFRQAPGKEREGVSCISSGHGMTYYADSVKGRFTISTDNSKNTLYLQMNSLRAEDTAVYYCATESRYYCSDNWPAPQRYIYWGQGTLVTVSS
Take B10: the VNA IC50 is > 1000 nM in [14]; 40 nM in assay [15]; > 1000 nM in [16]; 40 nM in [17]; > 1000 nM in assay [18].

B11: SD3093 (VHH)
VHH: EVQLVESGGGLVQPGGSLRLSCAISGLSLDTYAVGWFRQAPGKEREGVSCISSGHGMTYYADSVKGRFTISTDNSKNTVYLQMNSLRAEDTAVYYCATESRYYCSDNWPAPQRYIYWGQGTLVTVSS
In the case of B11, the VNA IC50 in assay [14] was > 1000 nM; in assay [15] it was 40 nM; in [16], 795 nM; in [17] it was 32 nM; in assay [18], 659 nM.

B12: SD3085 (VHH)
VHH: EVQLVESGGGLVQPGGSLRLSCAASGFTFSTSWMYWLRQAPGKGLEWVSVINTDGGTYYADSVKGRFTISRDNSKNTLYLQMNSLRAEDTAVYYCAKDWGGPEPTRGQGTLVTVSS
As for B12, the VNA IC50 in [14] is 228 nM; in assay [15], 13 nM; in assay [16], 32 nM; in assay [17], > 1000 nM; in [18], 64 nM.

B13: SD3087 (VHH)
VHH: EVQLLESGGGLVQPGGSLRLSCAASGFTLENKAIGWFRQAPGKEREGVLCISKSGSWTYYADSVKGRFTISRDNSKNTVYLQMNSLRPEDTAVYYCATTTAGGGLCWDGTTFSRLASSWGQGTLVTVSS
Turning to B13, the VNA IC50 in assay [14] stood at 201 nM; in assay [15], 81 nM; in assay [16], 104 nM; in [17], 91 nM; in [18], 160 nM.
